Measurements: the supplement of paper PMC5998384

What was measured:
[1] = system: HeLa Kyoto; assay: solubility change mitosis vs G1/S (difference of NP-40 vs SDS log2 ratios) (log2 ratio difference); higher = more soluble in mitosis
[2] = system: HeLa Kyoto; assay: solubility in G1/S (NP-40 vs SDS abundance) (log2 ratio); higher = more soluble; settings: cell cycle stage: G1/S
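Wherever solubility change mitosis vs G1/S (difference of NP-40 vs SDS log2 ratios) is given: synchronized HeLa Kyoto cells (double thymidine block for G1/S, nocodazole release for mitosis), protein amounts in NP-40 versus SDS lysates quantified by mass spectrometry, three biological replicates.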
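Wherever solubility in G1/S (NP-40 vs SDS abundance) is given: HeLa Kyoto cells arrested at G1/S by double thymidine block, proteins quantified by TMT10plex mass spectrometry in mild NP-40 versus SDS extracts, three biological replicates.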

| Sequence | solubility change mitosis (log2) [1] | solubility in G1/S (log2) [2] |
| --- | --- | --- |
| MAHEAMEYDVQVQLNHAEQQPAPAGMASSQGGPALLQPVPADVVSSQGVPSILQPAPAEVISSQATPPLLQPAPQLSVDLTEVEVLGEDTVENINPRTSEQHRQGSDGNHTIPASSLHSMTNFISGLQRLHGMLEFLRPSSSNHSVGPMRTRRRVSASRRARAGGSQRTDSARLRAPLDAYFQVSRTQPDLPATTYDSETRNPVSEELQVSSSSDSDSDSSAEYGGVVDQAEESGAVILEEQLAGVSAEQEVTCIDGGKTLPKQPSPQKSEPLLPSASMDEEEGDTCTICLEQWTNAGDHRLSALRCGHLFGYRCISTWLKGQVRKCPQCNKKARHSDIVVLYARTLRALDTSEQERMKSSLLKEQMLRKQAELESAQCRLQLQVLTDKCTRLQRRVQDLQKLTSHQSQNLQQPRGSQAWVLSCSPSSQGQHKHKYHFQKTFTVSQAGNCRIMAYCDALSCLVISQPSPQASFLPGFGVKMLSTANMKSSQYIPMHGKQIRGLAFSSYLRGLLLSASLDNTIKLTSLETNTVVQTYNAGRPVWSCCWCLDEANYIYAGLANGSILVYDVRNTSSHVQELVAQKARCPLVSLSYMPRAASAAFPYGGVLAGTLEDASFWEQKMDFSHWPHVLPLEPGGCIDFQTENSSRHCLVTYRPDKNHTTIRSVLMEMSYRLDDTGNPICSCQPVHTFFGGPTCKLLTKNAIFQSPENDGNILVCTGDEAANSALLWDAASGSLLQDLQTDQPVLDICPFEVNRNSYLATLTEKMVHIYKWE [RFWD3] | -0.0684 | -0.0967 |
| MAHLGPTPPPHSLNYKSEDRLSEQDWPAYFKVPCCGVDTSQIESEEAEVDVRERETQRDREPKRARDLTLRDSCTDNSMQFGTRTTTAEPGFMGTWQNADTNLLFRMSQQAIRCTLVNCTCECFQPGKINLRTCDQCKHGWVAHALDKLSTQHLYHPTQVEIVQSNVVFDISSLMLYGTQAVPVRLKILLDRLFSVLKQEEVLHILHGLGWTLRDYVRGYILQDAAGKVLDRWAIMSREEEIITLQQFLRFGETKSIVELMAIQEKEGQAVAVPSSKTDSDIRTFIESNNRTRSPSLLAHLENSNPSSIHHFENIPNSLAFLLPFQYINPVSAPLLGLPPNGLLLEQPGLRLREPSLSTQNEYNESSESEVSPTPYKNDQTPNRNALTSITNVEPKTEPACVSPIQNSAPVSDLTKTEHPKSSFRIHRMRRMGSASRKGRVFCNACGKTFYDKGTLKIHYNAVHLKIKHRCTIEGCNMVFSSLRSRNRHSANPNPRLHMPMLRNNRDKDLIRATSGAATPVIASTKSNLALTSPGRPPMGFTTPPLDPVLQNPLPSQLVFSGLKTVQPVPPFYRSLLTPGEMVSPPTSLPTSPIIPTSGTIEQHPPPPSEPVVPAVMMATHEPSADLAPKKKPRKSSMPVKIEKEIIDTADEFDDEDDDPNDGGAVVNDMSHDNHCHSQEEMSPGMSVKDFSKHNRTRCISRTEIRRADSMTSEDQEPERDYENESESSEPKLGEESMEGDEHIHSEVSEKVLMNSERPDENHSEPSHQDVIKVKEEFTDPTYDMFYMSQYGLYNGGGASMAALHESFTSSLNYGSPQKFSPEGDLCSSPDPKICYVCKKSFKSSYSVKLHYRNVHLKEMHVCTVAGCNAAFPSRRSRDRHSANINLHRKLLTKELDDMGLDSSQPSLSKDLRDEFLVKIYGAQHPMGLDVREDASSPAGTEDSHLNGYGRGMAEDYMVLDLSTTSSLQSSSSIHSSRESDAGSDEGILLDDIDGASDSGESAHKAEAPALPGSLGAEVSGSLMFSSLSGSNGGIMCNICHKMYSNKGTLRVHYKTVHLREMHKCKVPGCNMMFSSVRSRNRHSQNPNLHKNIPFTSVD [BNC2] | 0.235 | -0.628 |
| MAHYKAADSKREQFRRYLEKSGVLDTLTKVLVALYEEPEKPNSALDFLKHHLGAATPENPEIELLRLELAEMKEKYEAIVEENKKLKAKLAQYEPPQEEKRAE [MYCBP] | 0.968 | -0.523 |
| MAKFGVHRILLLAISLTKCLESTKLLADLKKCGDLECEALINRVSAMRDYRGPDCRYLNFTKGEEISVYVKLAGEREDLWAGSKGKEFGYFPRDAVQIEEVFISEEIQMSTKESDFLCLLGVSYTFDNEDSELNGDYGENIYPYEEDKDEKSSIYESDFQIEPGFYATYESTLFEDQVPALEAPEDIGSTSESKDWEEVVVESMEQDRIPEVHVPPSSAVSGVKEWFGLGGEQAEEKAFESVIEPVQESSFRSRKIAVEDENDLEELNNGEPQTEHQQESESEIDSVPKTQSELASESEHIPKPQSTGWFGGGFTSYLGFGDEDTGLELIAEESNPPLQDFPNSISSDKEATVPCTEILTEKKDTITNDSLSLKPSWFDFGFAILGFAYAKEDKIMLDDRKNEEDGGADEHEHPLTSELDPEKEQEIETIKIIETEDQIDKKPVSEKTDESDTIPYLKKFLYNFDNPWNFQNIPKETELPFPKQILDQNNVIENEETGEFSIDNYPTDNTKVMIFKSSYSLSDMVSNIELPTRIHEEVYFEPSSSKDSDENSKPSVDTEGPALVEIDRSVENTLLNSQMVSTDNSLSSQNYISQKEDASEFQILKYLFQIDVYDFMNSAFSPIVILTERVVAALPEGMRPDSNLYGFPWELVICAAVVGFFAVLFFLWRSFRSVRSRLYVGREKKLALMLSGLIEEKSKLLEKFSLVQKEYEGYEVESSLKDASFEKEATEAQSLEATCEKLNRSNSELEDEILCLEKELKEEKSKHSEQDELMADISKRIQSLEDESKSLKSQVAEAKMTFKIFQMNEERLKIAIKDALNENSQLQESQKQLLQEAEVWKEQVSELNKQKVTFEDSKVHAEQVLNDKESHIKTLTERLLKMKDWAAMLGEDITDDDNLELEMNSESENGAYLDNPPKGALKKLIHAAKLNASLKTLEGERNQIYIQLSEVDKTKEELTEHIKNLQTEQASLQSENTHFENENQKLQQKLKVMTELYQENEMKLHRKLTVEENYRLEKEEKLSKVDEKISHATEELETYRKRAKDLEEELERTIHSYQGQIISHEKKAHDNWLAARNAERNLNDLRKENAHNRQKLTETELKFELLEKDPYALDVPNTAFGREHSPYGPSPLGWPSSETRAFLSPPTLLEGPLRLSPLLPGGGGRGSRGPGNPLDHQITNERGESSCDRLTDPHRAPSDTGSLSPPWDQDRRMMFPPPGQSYPDSALPPQRQDRFCSNSGRLSGPAELRSFNMPSLDKMDGSMPSEMESSRNDTKDDLGNLNVPDSSLPAENEATGPGFVPPPLAPIRGPLFPVDARGPFLRRGPPFPPPPPGAMFGASRDYFPPGDFPGPPPAPFAMRNVYPPRGFPPYLPPRPGFFPPPPHSEGRSEFPSGLIPPSNEPATEHPEPQQET [CTAGE5] | 0.181 | -0.0196 |
| MAKGRVAERSQLGAHHTTPVGDGAAGTRGLAAPGSRDHQKEKSWVEAGSARMSLLILVSIFLSAAFVMFLVYKNFPQLSEEERVNMKVPRDMDDAKALGKVLSKYKDTFYVQVLVAYFATYIFLQTFAIPGSIFLSILSGFLYPFPLALFLVCLCSGLGASFCYMLSYLVGRPVVYKYLTEKAVKWSQQVERHREHLINYIIFLRITPFLPNWFINITSPVINVPLKVFFIGTFLGVAPPSFVAIKAGTTLYQLTTAGEAVSWNSIFILMILAVLSILPAIFQKKLKQKFE [TMEM41B] | 0.0116 | -0.0617 |
| MALEQALQAARQGELDVLRSLHAAGLLGPSLRDPLDALPVHHAARAGKLHCLRFLVEEAALPAAARARNGATPAHDASATGHLACLQWLLSQGGCRVQDKDNSGATVLHLAARFGHPEVVNWLLHHGGGDPTAATDMGALPIHYAAAKGDFPSLRLLVEHYPEGVNAQTKNGATPLYLACQEGHLEVTQYLVQECGADPHARAHDGMTPLHAAAQMGHSPVIVWLVSCTDVSLSEQDKDGATAMHFAASRGHTKVLSWLLLHGGEISADLWGGTPLHDAAENGELECCQILVVNGAELDVRDRDGYTAADLSDFNGHSHCTRYLRTVENLSVEHRVLSRDPSAELEAKQPDSGMSSPNTTVSVQPLNFDLSSPTSTLSNYDSCSSSHSSIKGQHPPCGLSSARAADIQSYMDMLNPELGLPRGTIGKPTPPPPPPSFPPPPPPPGTQLPPPPPGYPAPKPPVGPQAADIYMQTKNKLRHVETEALKKELSSCDGHDGLRRQDSSRKPRAFSKQPSTGDYYRQLGRCPGETLAARPGMAHSEEVRARQPARAGCPRLGPAARGSLEGPSAPPQAALLPGNHVPNGCAADPKASRELPPPPPPPPPPLPEAASSPPPAPPLPLESAGPGCGQRRSSSSTGSTKSFNMMSPTGDNSELLAEIKAGKSLKPTPQSKGLTTVFSGIGQPAFQPDSPLPSVSPALSPVRSPTPPAAGFQPLLNGSLVPVPPTTPAPGVQLDVEALIPTHDEQGRPIPEWKRQVMVRKMQLKMQEEEEQRRKEEEEEARLASMPAWRRDLLRKKLEEEREQKRKEEERQKQEELRREKEQSEKLRTLGYDESKLAPWQRQVILKKGDIAKY [ESPN] | -0.0492 | -0.041 |
| MALFVRLLALALALALGPAATLAGPAKSPYQLVLQHSRLRGRQHGPNVCAVQKVIGTNRKYFTNCKQWYQRKICGKSTVISYECCPGYEKVPGEKGCPAALPLSNLYETLGVVGSTTTQLYTDRTEKLRPEMEGPGSFTIFAPSNEAWASLPAEVLDSLVSNVNIELLNALRYHMVGRRVLTDELKHGMTLTSMYQNSNIQIHHYPNGIVTVNCARLLKADHHATNGVVHLIDKVISTITNNIQQIIEIEDTFETLRAAVAASGLNTMLEGNGQYTLLAPTNEAFEKIPSETLNRILGDPEALRDLLNNHILKSAMCAEAIVAGLSVETLEGTTLEVGCSGDMLTINGKAIISNKDILATNGVIHYIDELLIPDSAKTLFELAAESDVSTAIDLFRQAGLGNHLSGSERLTLLAPLNSVFKDGTPPIDAHTRNLLRNHIIKDQLASKYLYHGQTLETLGGKKLRVFVYRNSLCIENSCIAAHDKRGRYGTLFTMDRVLTPPMGTVMDVLKGDNRFSMLVAAIQSAGLTETLNREGVYTVFAPTNEAFRALPPRERSRLLGDAKELANILKYHIGDEILVSGGIGALVRLKSLQGDKLEVSLKNNVVSVNKEPVAEPDIMATNGVVHVITNVLQPPANRPQERGDELADSALEIFKQASAFSRASQRSVRLAPVYQKLLERMKH [TGFBI] | -0.149 | -0.072 |
| MALLRRPTVSSDLENIDTGVNSKVKSHVTIRRTVLEEIGNRVTTRAAQVAKKAQNTKVPVQPTKTTNVNKQLKPTASVKPVQMEKLAPKGPSPTPEDVSMKEENLCQAFSDALLCKIEDIDNEDWENPQLCSDYVKDIYQYLRQLEVLQSINPHFLDGRDINGRMRAILVDWLVQVHSKFRLLQETLYMCVGIMDRFLQVQPVSRKKLQLVGITALLLASKYEEMFSPNIEDFVYITDNAYTSSQIREMETLILKELKFELGRPLPLHFLRRASKAGEVDVEQHTLAKYLMELTLIDYDMVHYHPSKVAAAASCLSQKVLGQGKWNLKQQYYTGYTENEVLEVMQHMAKNVVKVNENLTKFIAIKNKYASSKLLKISMIPQLNSKAVKDLASPLIGRS [CCNB2] | 0.0941 | 0.241 |
| MALRSAQGDGPTSGHWDGGAEKADFNAKRKKKVAEIHQALNSDPTDVAALRRMAISEGGLLTDEIRRKVWPKLLNVNANDPPPISGKNLRQMSKDYQQVLLDVRRSLRRFPPGMPEEQREGLQEELIDIILLILERNPQLHYYQGYHDIVVTFLLVVGERLATSLVEKLSTHHLRDFMDPTMDNTKHILNYLMPIIDQVNPELHDFMQSAEVGTIFALSWLITWFGHVLSDFRHVVRLYDFFLACHPLMPIYFAAVIVLYREQEVLDCDCDMASVHHLLSQIPQDLPYETLISRAGDLFVQFPPSELAREAAAQQQAERTAASTFKDFELASAQQRPDMVLRQRFRGLLRPEDRTKDVLTKPRTNRFVKLAVMGLTVALGAAALAVVKSALEWAPKFQLQLFP [TBC1D20] | -0.0896 | -0.427 |
